Experimental data published in PMC3948464 (Nature Communications, 2014).

Target: GST-AK2 (glutatione S-transferase-adenylate kinase 2) (human, UniProt P54819 1-239)
Experiment: SEC

B1: His-DUSP26 (enzyme)
chain: MCPGNWLWASMTFMARFSRSSSRSPVRTRGTLEEMPTVQHPFLNVFELERLLYTGKTACNHADEVWPGLYLGDQDMANNRRELRRLGITHVLNASHSRWRGTPEAYEGLGIRYLGVEAHDSPAFDMSIHFQTAADFIHRALSQPGGKILVHCAVGVSRSATLVLAYLMLYHHLTLVEAIKKVKDHRGIIPNRGFLRQLLALDRRLRQGLEA
B1: binds.
